Patent publication US20170306001A1

What was measured:
[1] = biological target: VN04-HA, full length HA of A/Vietnam/1203/2004(H5N1) (clade 1) (influenza A virus A/Vietnam/1203/2004(H5N1)); assay: cell-based or functional assay
[2] = biological target: DL06-HA, full length HA of A/duck/Laos/3295/2006(H5N1) (clade 2.3.4) (influenza A virus A/duck/Laos/3295/2006(H5N1)); assay: cell-based or functional assay
[3] = biological target: Indo05-HA, full length HA of A/Indonesia/5/2005(H5N1) (clade 2.1) (influenza A virus A/Indonesia/5/2005(H5N1)); assay: cell-based or functional assay
[4] = biological target: VN04-HA, full length HA of A/Vietnam/1203/2004(H5N1) (clade 1) (influenza A virus A/Vietnam/1203/2004(H5N1))
[5] = biological target: DL06-HA, full length HA of A/duck/Laos/3295/2006(H5N1) (clade 2.3.4) (influenza A virus A/duck/Laos/3295/2006(H5N1))
[6] = biological target: Hatay04-HA, full length HA of A/chicken/Hatay/2004(H5N1) (clade 1) (influenza A virus A/chicken/Hatay/2004(H5N1))

Binder	IC50, entry of HA-pseudotyped lentiviral particles into MDCK cells (luciferase) [1] [ng/mL]	reduction of HApp entry at the highest concentration tested [1] [%]	IC50, entry of HA-pseudotyped lentiviral particles into MDCK cells (luciferase) [2] [ng/mL]	reduction of HApp entry at the highest concentration tested [2] [%]	IC50, entry of HA-pseudotyped lentiviral particles into MDCK cells (luciferase) [3] [ng/mL]	fold change of IC50 in the HApp neutralization assay against mouse-9F4 [1] [fold]	inhibition of VN04-HApp entry at 1000 ng/ml [1] [%]	endpoint titre [4] [ng/mL]	endpoint titre [5] [ng/mL]	endpoint titre [6] [ng/mL]
xi-IgG1-9F4 (antibody, V domains shown) V domain 1: QQSEAELARPGASVKMSCKASGFTLTTFTIHWVKQRPGQGLEWIGYINPRSGYTDYNQKFKDNTTLTVDKSSSTAYMQLSSLTSEDSAVFYCARSYYDYDVFDYWGQGTTLTV V domain 2: DVQMTQSPSSLSASLGGKVTITCTARQDINKYIAWYQHKPGKGPRLLIHYTSTLQPGIPSRFSGSGSGTDYSFTISNLEPEDIATYYCLQYDNLVTFGGGTK	10	90	10	90	10	–	–	–	–	–
xi-IgA1-9F4 (antibody, V domains shown) VH: QVQLQQSEAELARPGASVKMSCKASGFTLTTFTIHWVKQRPGQGLEWIGYINPRSGYTDYNQKFKDNTTLTVDKSSSTAYMQLSSLTSEDSAVFYCARSYYDYDVFDYWGQGTTLTVSS VL: DVQMTQSPSSLSASLGGKVTITCTARQDINKYIAWYQHKPGKGPRLLIHYTSTLQPGIPSRFSGSGSGTDYSFTISNLEPEDIATYYCLQYDNLVTFGGGTKLELKR	100	–	–	–	–	10	75	1250	1250	1250
